Data from PMC2585861 (The Journal of General Physiology, 2008).

Target: the molecule itself
Experiment: SEC

B1: KvLm-PM, pore module of KvLm (S4-S5 linker-S5-P-S6-C-terminus) (domain or fragment, Listeria monocytogenes, UniProt Q8Y5K1 98-247, looked up)
chain: RYIVPIYSFFRSNGLNRFLMIFVLLVIIIPVPMVFIEPEINNYPDALWWAIVTATTVGYGDIVPVTPIGRILASIMMLFGIAFIGMITSTITNFFRAKKPTNSSTQRANKITQLISETPDLTKEEIAVVEQFLTLRKKELADENTKSDSE
With B1 the “stoichiometry N” value was 4.
